Test results reported in patent publication US20080194020A1 (MEDICAL AND BIOLOGICAL LABORATORIES, published 2008).

T1: TAP2 (mouse (endogenous in mouse DC2.4 cells), UniProt P36371 1-702)
T1 construct: Endogenous protein in the cell lysate; also called TAP1/2
T1 sequence (looked up): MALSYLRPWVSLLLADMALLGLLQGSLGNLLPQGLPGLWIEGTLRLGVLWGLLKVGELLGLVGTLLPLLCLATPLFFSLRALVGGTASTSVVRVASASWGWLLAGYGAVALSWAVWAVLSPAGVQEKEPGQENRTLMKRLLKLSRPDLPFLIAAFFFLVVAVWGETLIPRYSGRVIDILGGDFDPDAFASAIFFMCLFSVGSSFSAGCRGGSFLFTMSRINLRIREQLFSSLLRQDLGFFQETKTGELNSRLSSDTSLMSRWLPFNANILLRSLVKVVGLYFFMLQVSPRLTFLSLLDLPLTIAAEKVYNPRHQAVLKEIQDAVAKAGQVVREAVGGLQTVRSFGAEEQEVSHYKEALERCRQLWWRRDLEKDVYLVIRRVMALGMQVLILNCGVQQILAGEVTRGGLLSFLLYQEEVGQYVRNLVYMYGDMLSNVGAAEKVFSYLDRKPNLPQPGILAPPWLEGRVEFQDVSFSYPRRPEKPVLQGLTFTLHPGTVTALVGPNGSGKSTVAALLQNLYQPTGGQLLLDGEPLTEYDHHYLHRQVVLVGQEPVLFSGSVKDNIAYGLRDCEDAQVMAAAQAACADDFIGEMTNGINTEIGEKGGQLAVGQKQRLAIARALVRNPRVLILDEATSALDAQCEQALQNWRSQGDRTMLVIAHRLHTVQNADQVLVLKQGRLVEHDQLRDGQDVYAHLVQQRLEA

T2: TAP1 (mouse (endogenous in mouse DC2.4 cells), UniProt P21958 1-724)
T2 construct: Endogenous protein in the cell lysate; also called TAP1/2
T2 sequence (looked up): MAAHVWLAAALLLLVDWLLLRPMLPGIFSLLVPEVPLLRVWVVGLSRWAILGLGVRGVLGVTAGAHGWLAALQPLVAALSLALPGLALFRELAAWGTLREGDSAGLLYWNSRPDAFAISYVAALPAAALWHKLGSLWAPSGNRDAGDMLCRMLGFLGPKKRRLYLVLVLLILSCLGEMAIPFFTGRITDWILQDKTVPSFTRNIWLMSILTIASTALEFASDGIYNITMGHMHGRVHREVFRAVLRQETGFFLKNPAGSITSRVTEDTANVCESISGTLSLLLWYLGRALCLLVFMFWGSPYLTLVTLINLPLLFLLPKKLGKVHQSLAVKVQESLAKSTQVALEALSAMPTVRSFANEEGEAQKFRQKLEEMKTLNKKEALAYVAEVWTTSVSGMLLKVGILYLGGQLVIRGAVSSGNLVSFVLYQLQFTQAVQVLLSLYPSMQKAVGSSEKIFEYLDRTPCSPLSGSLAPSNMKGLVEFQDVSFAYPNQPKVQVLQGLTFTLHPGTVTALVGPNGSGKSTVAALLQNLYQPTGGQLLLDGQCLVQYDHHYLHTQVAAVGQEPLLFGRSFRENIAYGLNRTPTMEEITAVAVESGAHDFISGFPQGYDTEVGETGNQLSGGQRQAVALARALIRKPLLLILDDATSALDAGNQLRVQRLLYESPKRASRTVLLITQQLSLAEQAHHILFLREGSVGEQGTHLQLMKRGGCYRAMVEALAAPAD

B1: CHIP, an E3-ubiquitin ligase (enzyme, mouse (endogenous in mouse DC2.4 cells), UniProt Q9WUD1 1-304, looked up)
chain: MKGKEEKEGGARLGTGGGGSPDKSPSAQELKEQGNRLFVGRKYPEAAACYGRAITRNPLVAVYYTNRALCYLKMQQPEQALADCRRALELDGQSVKAHFFLGQCQLEMESYDEAIANLQRAYSLAKEQRLNFGDDIPSALRIAKKKRWNSIEERRIHQESELHSYLTRLIAAERERELEECQRNHEGHEDDGHIRAQQACIEAKHDKYMADMDELFSQVDEKRKKRDIPDYLCGKISFELMREPCITPSGITYDRKDIEEHLQRVGHFDPVTRSPLTQEQLIPNLAMKEVIDAFISENGWVEDY
B2: biotin-labeled chicken ovalbumin (bOVA) (other, UniProt P01012 2-386, looked up)
chain: GSIGAASMEFCFDVFKELKVHHANENIFYCPIAIMSALAMVYLGAKDSTRTQINKVVRFDKLPGFGDSIEAQCGTSVNVHSSLRDILNQITKPNDVYSFSLASRLYAEERYPILPEYLQCVKELYRGGLEPINFQTAADQARELINSWVESQTNGIIRNVLQPSSVDSQTAMVLVNAIVFKGLWEKAFKDEDTQAMPFRVTEQESKPVQMMYQIGLFRVASMASEKMKILELPFASGTMSMLVLLPDEVSGLEQLESIINFEKLTEWTSSNVMEERKIKVYLPRMKMEEKYNLTSVLMAMGITDVFSSSANLSGISSAESLKISQAVHAAHAEINEAGREVVGSAEAGVDAASVSEEFRADHPFLFCIKHIATNAVLFFGRCVSP
modifications: biotin-labeled (sites not given)

Assays:
[1] = molecular target: B2; assay: cell-based or functional assay
TAP2 = molecular target: T1, TAP2; assay: co-immunoprecipitation with anti-TAP2 from DC2.4 lysate, blot with SA-HRP
Procedure: (§1) DC2.4 cells were incubated with bOVA and subjected to co-immunoprecipitation with anti-Sec61α. bOVA was added at 2.5 mg mL⁻¹ to cell lysates before immunoprecipitation (the two left-hand lanes in each panel).
(§2) 2×10⁷ DC2.4 or BMDC cells were cultured for four hours in a medium containing 10 μM MG-132 in the presence of bOVA at 250 μg mL⁻¹. Cells were lysed in 20 mM HEPES pH7.6 containing 1% digitonin and protease inhibitors to collect biotin-labeled samples. The samples were cleared of impurities in advance using protein G sepharose (Amersham Pharmacia Biotech), and after incubation with antibodies for precipitation (anti-Sec61β, anti Sec61α, anti-VCP, anti-BiP, anti-PDI, anti-calreticulin, anti-TAP1, and anti-TAP2), the immunoprecipitates were collected using protein G. When chicken anti-CHIP antibody was used, immunoprecipitates were collected using a rabbit anti-IgY column (a person, MBL). The precipitated samples were analyzed by SDS-PAGE and Western blotting.

TAP1 = molecular target: T2, TAP1; assay: co-immunoprecipitation with anti-TAP1 from DC2.4 lysate, blot with SA-HRP
Procedure: as §1, §2

polyubiquitination of bOVA in CHIP-knocked-down DC2.4 cells relative to parental cells [1] [%] | binding result (TAP2) | binding result (TAP1) | Binder
34 | – | – | B1
– | no binding | no binding | B2
